Experimental data from patent US20080045451A1, “Novel thymidylate synthase mutants” (priority 2000, published 2008).

Key:
[1] = Steady-state kinetic analysis of purified His-tagged TS proteins; type: biochemical, human; conditions: 25° C., dUMP 400 μM
Text: To subclone mutant TS fragments into the pH is vector (a modified pUC12 vector provided by A. Hizi), the TS cDNA was PCR-amplified by using HK-MUT5′ and TSXho3′ (5′-[…]-3′, SEQ ID NO: 4). After digestion with NdeI and XhoI, the amplified fragments were ligated into the NdeISalI digested pH is vector. The reconstructed plasmids were verified by both restriction analysis and DNA sequencing. Wild type and mutant TS proteins, as N-terminal hexahistidine fusions, were then purified by metal chelation chromatography on Ni^2+ affinity resin (His Bind resin and buffer kit, Novagen), as previously described, with minor modifications (see Landis, cited above). An overnight culture of χ2913 cells expressing the His-TS fusion protein was diluted 1:100 into 250 ml of 2×YT medium containing carbenicillin and thymidine. […] The concentration of purified TS was determined by using the Bradford assay.
TS activity was monitored spectrophotometrically by the increase in absorbance at 340 nm that occurs concomitant with the production of H2 folate (Δε=6400 M^−1 cm^−1). […] Steady-state kinetic parameters were derived by a nonlinear least squares fit of the data to the Michaelis Menten equation with KaleidaGraph 3.0 software (Abelbeck Software, Reading Pa.). […]

[2] = Inhibition constants (Ki) for 5-FdUMP from Dixon plot; type: biochemical, human; conditions: 25° C.
Description: TS activity was monitored spectrophotometrically by the increase in absorbance at 340 nm that occurs concomitant with the production of H2 folate (Δε=6400 M^−1 cm^−1). The reaction buffer contained 50 mM TES (pH 7.4), 25 mM NaCl, 6.5 mM formaldehyde, 1 mM EDTA and 150 μM 2-mercaptoethanol. When the concentration of dUMP was varied, a high concentration of (6R)—CH2H4 folate was added (3001200 mM of a racemic mixture); when the concentration of (6R)—CH2H4-folate was varied, the concentration of dUMP was 400 μM. Purified wild type or mutant TS protein was added to initiate the reaction at 25° C. Initial velocity measurements were obtained with a Perkin Elmer Lambda Bio 20 UV/VIS spectrophotometer. Steady-state kinetic parameters were derived by a nonlinear least squares fit of the data to the Michaelis Menten equation with KaleidaGraph 3.0 software (Abelbeck Software, Reading Pa.). […] Two dUMP concentrations (30 μM and 300 μM) were used, and FdUMP concentrations were varied. To initiate reactions, CH2H4-folate was added to yield a final concentration of 300 μM of the active isomer.

E. coli χ2913 cells = assay: Survival of TS-deficient E. coli χ2913 expressing wild type or mutant TS on M9 plates containing 5-FdUR; type: cell-based
Description: The resistance of each of the 41 mutants to 5-FdUR is expressed as fold enhancement in survival relative to wild type determined in parallel assays. All assays were carried out in duplicate at varying concentration of 5-FdUR and most comparison were repeated in two or more separate experiments. […] Only those experiments in which the survival of the wild type was lower than 1% were included in this tabulation. The percent survival of the wild type at the indicated concentrations of 5-FdUR is as follows: (a) 0.4% in 0.4 nM; (b) <0.1% in a 150 nM; (c) 0.1% at 150 nM; (d) 0 at 300 nM; (e) 0.5% at 150 nM; (f) 0 at 200 nM; (g) 0.95 at 150 nM.
E. coli χ2913 cells harboring plasmids with random substitutions encoding different amino acids, the TS library, were grown overnight at 37° C. in 2×YT medium containing 50 mg/ml of carbenicillin and 50 mg/ml thymidine. Cultures were diluted 1:100 in the same medium and grown at 37° C. until the OD600 reached 0.6 to 0.8. Aliquots (1 ml) of the exponentially growing cells were pelleted and resuspended in M9 salts and plated on three different media. On 1×YT containing […] of carbenicillin and supplemented with 50 mg/ml of thymidine, essentially all cells harboring the plasmid DNA should be recovered. On M9 plates containing carbenicillin, only cells expressing active TS proteins should grow because the medium lacks thymidine. Drug resistant clones were selected on M9 plates containing carbenicillin and increasing concentrations of 5FdUR essentially as previously described (Landis, D. M., Loeb, L. A., 1998, J. Biol. Chem. 273:25809-25817)
To isolate mutants that render E. coli χ2913 resistant to 5-FdUR, the TS library was plated on M9 minimal medium containing 200 or 300 nM 5-FdUR. […] Resistant colonies were selected and plasmid DNA was isolated and re-transformed into fresh χ2913 cells to confirm that the plasmid was the source of the drug-resistant phenotype.
To obtain a profile of amino acid replacements conferring resistance, the remaining, 3′-proximal third of the cDNA from each of the 33 mutants was sequenced. […] Resistance is recorded as percent survival relative to percent survival of host cells harboring wild type TS at 150 nM 5-FdUR of greater. Expression of TS in 10 of the resistant mutants was analyzed by Western blotting with antiserum directed against human TS. The level of expression of wild type TS was more than 2-fold greater than that of any of the mutants, estimated by visual inspection of the gel (data not shown). The mutant proteins may be more labile than the wild type or more susceptible to proteolytic degradation.

B1: Mutant 302: human TS mutant, substitutions T53S, Y258F (protein, UniProt P04818 2-313, looked up, variant T53S Y258F)
Thymidylate synthase: PVAGSELPRRPLPPAAQERDAEPRPPHGELQYLGQIQHILRCGVRKDDRTGSGTLSVFGMQARYSLRDEFPLLTTKRVFWKGVLEELLWFIKGSTNAKELSSKGVKIWDANGSRDFLDSLGFSTREEGDLGPVYGFQWRHFGAEYRDMESDYSGQGVDQLQRVIDTIKTNPDDRRIIMCAWNPRDLPLMALPPCHALCQFYVVNSELSCQLYQRSGDMGLGVPFNIASYALLTYMIAHITGLKPGDFIHTLGDAHIFLNHIEPLKIQLQREPRPFPKLRILRKVEKIDDFKAEDFQIEGYNPHPTIKMEMAV
Question: Which results are given for B1?
Answer: Km for CH2H4-folate, fold higher than wild type TS [1]: approximately 10 fold; Ki for 5-FdUMP, increase over wild type TS [2]: 6 fold; Survival Mutant/WT (fold enhancement in survival relative to wild type) (E. coli χ2913 cells; (g) wild type survival 0.95 at 150 nM 5-FdUR): 220 fold; resistance to 5-FdUR (survival curves), in words (E. coli χ2913 cells; FIG. 3A-3C, single mutants made by site-directed mutagenesis): as resistant or more resistant to elevated concentrations of 5-FdUR than any clone tested; 5-FdUR concentration at which colonies formed on minimal plates (E. coli χ2913 cells; side-by-side comparison, FIG. 3A, 200 nM clones did not grow at 250 nM): 250 nM
